Laboratory results taken from patent US20230151095A1 (published 2023).

Molecular target: CD16 (UniProt P08637 17-208)
Sequence (P08637 17-208): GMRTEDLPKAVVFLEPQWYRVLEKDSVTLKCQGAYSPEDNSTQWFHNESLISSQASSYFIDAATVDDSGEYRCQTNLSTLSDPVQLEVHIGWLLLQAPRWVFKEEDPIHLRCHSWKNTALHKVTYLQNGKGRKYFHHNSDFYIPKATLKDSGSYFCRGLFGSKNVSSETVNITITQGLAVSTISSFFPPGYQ

Row | Kd [nM] | Binder
1 | 28.9 | XENP41022 (antibody) chain 1: EVQLLESGGGLVQPGGSLRLSCAVSGFSLSSYGVIWVRQAPGKGLEYVSWVSSGGSTNYASSVKGRFTISRDTSKNTVYLQMNSLRAEDTAVYFCARGATNSGTDIWGPGTLVTVSSASTKGPSVFPLAPSSKSTSGGTAALGCLVKDYFPEPVTVSWNSGALTSGVHTFPAVLQSSGLYSLSSVVTVPSSSLGTQTYICNVNHKPSDTKVDKKVEPKSCDKTHTCPPCPAPELLGGPDVFLFPPKPKDTLMISRTPEVTCVVVDVSHEDPEVKFNWYVDGVEVHNAKTKPREEEYNSTYRVVSVLTVLHQDWLNGKEYKCKVSNKALPAPEEKTISKAKGQPREPQVYTLPPSREEMTKNQVSLTCDVSGFYPSDIAVEWESDGQPENNYKTTPPVLDSDGSFFLYSKLTVDKSRWEQGDVFSCSVMHEALHNHYTQKSLSLSPGK chain 2: EVQLLESGGGLVQPGGSLRLSCAVSGFSLSSYGVIWVRQAPGKGLEYVSWVSSGGSTNYASSVKGRFTISRDTSKNTVYLQMNSLRAEDTAVYFCARGATNSGTDIWGPGTLVTVSSGKPGSGKPGSGKPGSGKPGSDIVMTQSPSSLSASVGDRVTITCRASQSINSWLSWYQQKPGKPPKLLIYGASNLASGVPSRFKGSGSGTDFTLTISSLQPEDFATYYCQNNYGIIAAGATFGGGTKVEIKEPKSSDKTHTCPPCPAPELLGGPDVFLFPPKPKDTLMISRTPEVTCVVVDVSHEDPEVKFNWYVDGVEVHNAKTKPREEQYNSTYRVVSVLTVLHQDWLNGKEYKCKVSNKALPAPEEKTISKAKGQPREPQVYTLPPSREQMTKNQVKLTCLVKGFYPSDIAVEWESNGQPENNYKTTPPVLDSDGSFFLYSKLTVDKSRWQQGNVFSCSVMHEALHNHYTQKSLSLSPGK chain 3: DIVMTQSPSSLSASVGDRVTITCRASQSINSWLSWYQQKPGKPPKLLIYGASNLASGVPSRFKGSGSGTDFTLTISSLQPEDFATYYCQNNYGIIAAGATFGGGTKVEIKRTVAAPSVFIFPPSDEQLKSGTASVVCLLNNFYPREAKVQWKVDNALQSGNSQESVTEQDSKDSTYSLSSTLTLSKADYEKHKVYACEVTHQGLSSPVTKSFNRGEC
2 | 242 | XENP41027 (antibody) chain 1: EVQLLESGGGLVQPGGSLRLSCAVSGFSLSSYGVIWVRQAPGKGLEYVSWVSSGGSTNYASSVKGRFTISRDTSKNTVYLQMNSLRAEDTAVYFCARGATNSGTDIWGPGTLVTVSSASTKGPSVFPLAPSSKSTSGGTAALGCLVKDYFPEPVTVSWNSGALTSGVHTFPAVLQSSGLYSLSSVVTVPSSSLGTQTYICNVNHKPSDTKVDKKVEPKSCDKTHTCPPCPAPELLGGPSVFLFPPKPKDTLMISRTPEVTCVVVDVSHEDPEVKFNWYVDGVEVHNAKTKPREEEYNSTYRVVSVLTVLHQDWLNGKEYKCKVSNKALPAPIEKTISKAKGQPREPQVYTLPPSREEMTKNQVSLTCDVSGFYPSDIAVEWESDGQPENNYKTTPPVLDSDGSFFLYSKLTVDKSRWEQGDVFSCSVMHEALHNHYTQKSLSLSPGK chain 2: EVQLLESGGGLVQPGGSLRLSCAVSGFSLSSYGVIWVRQAPGKGLEYVSWVSSGGSTNYASSVKGRFTISRDTSKNTVYLQMNSLRAEDTAVYFCARGATNSGTDIWGPGTLVTVSSGKPGSGKPGSGKPGSGKPGSDIVMTQSPSSLSASVGDRVTITCRASQSINSWLSWYQQKPGKPPKLLIYGASNLASGVPSRFKGSGSGTDFTLTISSLQPEDFATYYCQNNYGIIAAGATFGGGTKVEIKEPKSSDKTHTCPPCPAPELLGGPSVFLFPPKPKDTLMISRTPEVTCVVVDVSHEDPEVKFNWYVDGVEVHNAKTKPREEQYNSTYRVVSVLTVLHQDWLNGKEYKCKVSNKALPAPEEKTISKAKGQPREPQVYTLPPSREQMTKNQVKLTCLVKGFYPSDIAVEWESNGQPENNYKTTPPVLDSDGSFFLYSKLTVDKSRWQQGNVFSCSVMHEALHNHYTQKSLSLSPGK chain 3: DIVMTQSPSSLSASVGDRVTITCRASQSINSWLSWYQQKPGKPPKLLIYGASNLASGVPSRFKGSGSGTDFTLTISSLQPEDFATYYCQNNYGIIAAGATFGGGTKVEIKRTVAAPSVFIFPPSDEQLKSGTASVVCLLNNFYPREAKVQWKVDNALQSGNSQESVTEQDSKDSTYSLSSTLTLSKADYEKHKVYACEVTHQGLSSPVTKSFNRGEC
